# According to publication PMC8944867:
# Molecular target: HOIP UBA-RBR-LDD/HOIL-1L UBL complex (human) (UniProt Q96EP0)
# Assay: ITC
# Chain of HOIP UBA-RBR-LDD/HOIL-1L UBL complex (human) (Q96EP0 whole entry, chain 1 of 2): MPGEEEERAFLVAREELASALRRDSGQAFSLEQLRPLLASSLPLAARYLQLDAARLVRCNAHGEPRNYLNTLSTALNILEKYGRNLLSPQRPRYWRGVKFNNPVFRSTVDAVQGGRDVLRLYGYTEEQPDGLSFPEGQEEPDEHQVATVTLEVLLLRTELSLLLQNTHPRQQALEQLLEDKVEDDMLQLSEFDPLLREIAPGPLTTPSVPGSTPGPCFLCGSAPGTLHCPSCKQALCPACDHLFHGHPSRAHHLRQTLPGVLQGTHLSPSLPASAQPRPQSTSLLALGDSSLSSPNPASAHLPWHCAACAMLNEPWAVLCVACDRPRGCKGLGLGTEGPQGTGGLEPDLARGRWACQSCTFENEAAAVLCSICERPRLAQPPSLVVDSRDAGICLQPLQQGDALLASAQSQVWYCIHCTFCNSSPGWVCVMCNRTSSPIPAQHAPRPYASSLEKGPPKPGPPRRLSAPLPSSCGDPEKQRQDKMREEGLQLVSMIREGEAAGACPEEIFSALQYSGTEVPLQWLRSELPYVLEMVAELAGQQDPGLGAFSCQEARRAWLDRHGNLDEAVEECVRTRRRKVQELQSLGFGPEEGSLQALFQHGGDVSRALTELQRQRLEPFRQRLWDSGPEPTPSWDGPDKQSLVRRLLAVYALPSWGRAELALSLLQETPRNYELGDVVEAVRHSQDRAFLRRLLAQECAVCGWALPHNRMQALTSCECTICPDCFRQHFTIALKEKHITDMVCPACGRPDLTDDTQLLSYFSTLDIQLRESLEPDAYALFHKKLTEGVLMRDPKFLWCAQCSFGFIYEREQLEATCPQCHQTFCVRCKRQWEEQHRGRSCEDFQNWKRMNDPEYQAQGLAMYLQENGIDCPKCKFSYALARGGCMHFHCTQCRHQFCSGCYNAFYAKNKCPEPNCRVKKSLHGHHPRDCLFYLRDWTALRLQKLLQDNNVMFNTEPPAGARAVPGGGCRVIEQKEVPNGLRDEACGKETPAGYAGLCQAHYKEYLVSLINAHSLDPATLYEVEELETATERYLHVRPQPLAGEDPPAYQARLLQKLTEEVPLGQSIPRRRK
# Chain of HOIP UBA-RBR-LDD/HOIL-1L UBL complex (human) (Q9BYM8 53-135, chain 2 of 2, further chain): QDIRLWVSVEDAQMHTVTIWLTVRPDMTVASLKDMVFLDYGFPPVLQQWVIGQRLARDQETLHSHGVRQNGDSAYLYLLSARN
substance,measurement,value
IpaH1.4 LRR domain (from UniProt A0A0H2USG1 38-283) (domain or fragment),Kd,2.3 µM
